Laboratory results taken from US20100081612A1 (GENERAL HOSPITAL, published 2010).
Where no end group is shown, it is not given here. [ ]: non-standard residue; d: D form. Cha = N[C@@H](CC1CCCCC1)C(=O)O

T1: wild-type human PTHR (human, UniProt Q03431 27-593)
T1 construct: whole, on cells; also called PTHR-WT; intact PTHR
T1 sequence (looked up): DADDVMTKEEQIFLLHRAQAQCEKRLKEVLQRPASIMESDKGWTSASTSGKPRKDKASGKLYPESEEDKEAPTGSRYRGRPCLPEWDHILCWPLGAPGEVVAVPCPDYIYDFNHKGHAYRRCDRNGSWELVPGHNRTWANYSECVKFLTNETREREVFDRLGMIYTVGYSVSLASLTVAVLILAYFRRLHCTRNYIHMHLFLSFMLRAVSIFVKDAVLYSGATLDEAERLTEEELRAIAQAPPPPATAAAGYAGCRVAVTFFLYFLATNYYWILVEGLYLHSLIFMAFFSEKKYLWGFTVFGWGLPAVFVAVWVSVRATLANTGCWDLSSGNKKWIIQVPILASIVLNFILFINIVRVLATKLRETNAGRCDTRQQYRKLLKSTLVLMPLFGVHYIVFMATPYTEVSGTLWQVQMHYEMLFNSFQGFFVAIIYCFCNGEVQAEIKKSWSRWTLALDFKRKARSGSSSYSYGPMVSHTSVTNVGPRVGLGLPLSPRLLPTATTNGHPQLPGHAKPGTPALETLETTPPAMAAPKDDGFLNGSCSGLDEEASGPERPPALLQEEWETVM


Legend:
[1] = target: T1, wild-type human PTHR; test: competition binding, HKRK-B7 cells, 125I-PTH(1-34) tracer
Method: Receptor binding—Binding to the wild-type human PTHR in intact HKRK-B7 cells and ROS 17/2.8 cells was assessed using ¹²⁵I-PTH(1-34) as a tracer radioligand, as described (Shimizu, M., (2001) Endocrinology 142:3068-3074). In brief, the cells in 24-well plates (about 500,000 cells per well) were incubated in binding buffer containing radioligand (about 100,000 cpm per well) with or without unlabeled peptide ligand (3×10⁻⁹ to 1×10⁻⁵ M) for four hours at 15° C. The binding mixture was then removed by aspiration, the cells were rinsed three times with binding buffer, lysed in 1 M NaOH, and the entire lysate was counted for gamma-irradiation in a gamma counter. Binding to PTHR-delNt in COS-7 cell membranes was assessed in 96-well, vacuum filtration plates (Multiscreen-Durapore HV, […], Millipore Corp., Millford, Mass.) using ¹²⁵I-[Aib^{1,3},M]PTH(1-15)NH₂ as a tracer radioligand, as described (Dean, T., (2006) Mol Endocrinol 20:931-942). In brief, cell membranes (20 μg/well) were incubated in membrane binding buffer containing radioligand (30,000 cpm/well) with or without unlabeled peptide ligand (3×10⁻⁹ to 1×10⁻⁵ M) for 90 minutes at 21° C. The plates were then subject to rapid vacuum filtration, the filters were washed once with buffer, detached from the plate and counted for gamma-irradiation in a gamma counter. Non-specific binding was defined as the binding observed in the presence of 1×10⁻⁶ M PTH(1-31)NH₂ for HKRK-B7 and ROS 17/2.8 cells, and 1×10⁻⁶ M [Aib^{1,3},M]PTH(1-15)NH₂ for PTHR-delNt. Specifically bound radioactivity was calculated as a percentage of the radioactivity specifically bound in the absence of competing ligand.
Cyclohexylalanine and glutamate substitutions were introduced into [Ala¹,Arg¹⁹]hPTH(1-31)NH₂. The helical residue values were calculated from [θ]₂₂₂, the mean-residue elipticities observed in the CD spectra at 222 nm. Competition binding studies were performed in intact HKRK-B7 cells stably transfected with the hPTHR using ¹²⁵I-[Nle^{8,21},Tyr³⁴]rPTH(1-34)NH ₂ tracer radioligand, and in membranes prepared from COS-7 cells transiently transfected with hPTHR-delNt and a negative-dominant Gαs using ¹²⁵I-[Aib^{1,3},Nle⁸,Gln¹⁰,Har¹¹,Ala¹²,Trp¹⁴,Tyr¹⁵]rPTH(1-15)NH₂ tracer radioligand. Binding values (nM) are means (+/−s.e.m.) of data from the number of experiments indicated (n).

[2] = target: PTHR-delNt (human) (UniProt Q03431); test: competition binding, COS-7 membranes, 125I-[Aib1,3,M]PTH(1-15) tracer
[3] = target: T1, wild-type human PTHR; test: competition binding, HKRK-B7 cells, 125I-PTH(1-34) tracer; remark: listed apart in the source

| Binder | IC50 [1] | IC50 [2] | fold change in binding affinity vs [Ala^1,Arg^19]PTH(1-31)NH2 [2] | fold change in binding affinity vs [Ala^1,Arg^19]PTH(1-31)NH2 [3] |
| --- | --- | --- | --- | --- |
| AVSEIQLMHNLGKHLNSMRRVEWLRKKL[Cha]DV-NH2 (N-terminus assumed; SMILES CC[C@H](C)[C@H](NC(=O)[C@H](CCC(=O)O)NC(=O)[C@H](CO)NC(=O)[C@@H](NC(=O)[C@H](C)N)C(C)C)C(=O)N[C@@H](CCC(N)=O)C(=O)N[C@@H](CC(C)C)C(=O)N[C@@H](CCSC)C(=O)N[C@@H](Cc1c[nH]cn1)C(=O)N[C@@H](CC(N)=O)C(=O)N[C@@H](CC(C)C)C(=O)NCC(=O)N[C@@H](CCCCN)C(=O)N[C@@H](Cc1c[nH]cn1)C(=O)N[C@@H](CC(C)C)C(=O)N[C@@H](CC(N)=O)C(=O)N[C@@H](CO)C(=O)N[C@@H](CCSC)C(=O)N[C@@H](CCCNC(=N)N)C(=O)N[C@@H](CCCNC(=N)N)C(=O)N[C@H](C(=O)N[C@@H](CCC(=O)O)C(=O)N[C@@H](Cc1c[nH]c2ccccc12)C(=O)N[C@@H](CC(C)C)C(=O)N[C@@H](CCCNC(=N)N)C(=O)N[C@@H](CCCCN)C(=O)N[C@@H](CCCCN)C(=O)N[C@@H](CC(C)C)C(=O)N[C@@H](CC1CCCCC1)C(=O)N[C@@H](CC(=O)O)C(=O)N[C@H](C(N)=O)C(C)C)C(C)C) [[Ala^1,Arg^19]hPTH(1-31)NH2 Gln^29→Cha] | 61 nM | 319 nM | < 3 fold | ≤ 6 fold |
| AVSEIQLMHNLGKHLNSMRRVEWLRKK[Cha]QDV-NH2 (N-terminus assumed; SMILES CC[C@H](C)[C@H](NC(=O)[C@H](CCC(=O)O)NC(=O)[C@H](CO)NC(=O)[C@@H](NC(=O)[C@H](C)N)C(C)C)C(=O)N[C@@H](CCC(N)=O)C(=O)N[C@@H](CC(C)C)C(=O)N[C@@H](CCSC)C(=O)N[C@@H](Cc1c[nH]cn1)C(=O)N[C@@H](CC(N)=O)C(=O)N[C@@H](CC(C)C)C(=O)NCC(=O)N[C@@H](CCCCN)C(=O)N[C@@H](Cc1c[nH]cn1)C(=O)N[C@@H](CC(C)C)C(=O)N[C@@H](CC(N)=O)C(=O)N[C@@H](CO)C(=O)N[C@@H](CCSC)C(=O)N[C@@H](CCCNC(=N)N)C(=O)N[C@@H](CCCNC(=N)N)C(=O)N[C@H](C(=O)N[C@@H](CCC(=O)O)C(=O)N[C@@H](Cc1c[nH]c2ccccc12)C(=O)N[C@@H](CC(C)C)C(=O)N[C@@H](CCCNC(=N)N)C(=O)N[C@@H](CCCCN)C(=O)N[C@@H](CCCCN)C(=O)N[C@@H](CC1CCCCC1)C(=O)N[C@@H](CCC(N)=O)C(=O)N[C@@H](CC(=O)O)C(=O)N[C@H](C(N)=O)C(C)C)C(C)C) [[Ala^1,Arg^19]hPTH(1-31)NH2 Leu^28→Cha] | 65 nM | 226 nM | < 3 fold | ≤ 6 fold |
| AVSEIQLMHNLGKHLNSMRR[Cha]EWLRKKLQDV-NH2 (N-terminus assumed; SMILES CC[C@H](C)[C@H](NC(=O)[C@H](CCC(=O)O)NC(=O)[C@H](CO)NC(=O)[C@@H](NC(=O)[C@H](C)N)C(C)C)C(=O)N[C@@H](CCC(N)=O)C(=O)N[C@@H](CC(C)C)C(=O)N[C@@H](CCSC)C(=O)N[C@@H](Cc1c[nH]cn1)C(=O)N[C@@H](CC(N)=O)C(=O)N[C@@H](CC(C)C)C(=O)NCC(=O)N[C@@H](CCCCN)C(=O)N[C@@H](Cc1c[nH]cn1)C(=O)N[C@@H](CC(C)C)C(=O)N[C@@H](CC(N)=O)C(=O)N[C@@H](CO)C(=O)N[C@@H](CCSC)C(=O)N[C@@H](CCCNC(=N)N)C(=O)N[C@@H](CCCNC(=N)N)C(=O)N[C@@H](CC1CCCCC1)C(=O)N[C@@H](CCC(=O)O)C(=O)N[C@@H](Cc1c[nH]c2ccccc12)C(=O)N[C@@H](CC(C)C)C(=O)N[C@@H](CCCNC(=N)N)C(=O)N[C@@H](CCCCN)C(=O)N[C@@H](CCCCN)C(=O)N[C@@H](CC(C)C)C(=O)N[C@@H](CCC(N)=O)C(=O)N[C@@H](CC(=O)O)C(=O)N[C@H](C(N)=O)C(C)C) [[Ala^1,Arg^19]hPTH(1-31)NH2 Val^21→Cha] | 74 nM | 564 nM | < 3 fold | ≤ 6 fold |
| AVSEIQLMHNLGKHLNSMRRV[Cha]WLRKKLQDV-NH2 (N-terminus assumed; SMILES CC[C@H](C)[C@H](NC(=O)[C@H](CCC(=O)O)NC(=O)[C@H](CO)NC(=O)[C@@H](NC(=O)[C@H](C)N)C(C)C)C(=O)N[C@@H](CCC(N)=O)C(=O)N[C@@H](CC(C)C)C(=O)N[C@@H](CCSC)C(=O)N[C@@H](Cc1c[nH]cn1)C(=O)N[C@@H](CC(N)=O)C(=O)N[C@@H](CC(C)C)C(=O)NCC(=O)N[C@@H](CCCCN)C(=O)N[C@@H](Cc1c[nH]cn1)C(=O)N[C@@H](CC(C)C)C(=O)N[C@@H](CC(N)=O)C(=O)N[C@@H](CO)C(=O)N[C@@H](CCSC)C(=O)N[C@@H](CCCNC(=N)N)C(=O)N[C@@H](CCCNC(=N)N)C(=O)N[C@H](C(=O)N[C@@H](CC1CCCCC1)C(=O)N[C@@H](Cc1c[nH]c2ccccc12)C(=O)N[C@@H](CC(C)C)C(=O)N[C@@H](CCCNC(=N)N)C(=O)N[C@@H](CCCCN)C(=O)N[C@@H](CCCCN)C(=O)N[C@@H](CC(C)C)C(=O)N[C@@H](CCC(N)=O)C(=O)N[C@@H](CC(=O)O)C(=O)N[C@H](C(N)=O)C(C)C)C(C)C) [[Ala^1,Arg^19]hPTH(1-31)NH2 Glu^22→Cha] | 75 nM | 126 nM | < 3 fold | ≤ 6 fold |
| AVSEIQLMHNLGKHLNSMRRVEWLRK[Cha]LQDV-NH2 (N-terminus assumed; SMILES CC[C@H](C)[C@H](NC(=O)[C@H](CCC(=O)O)NC(=O)[C@H](CO)NC(=O)[C@@H](NC(=O)[C@H](C)N)C(C)C)C(=O)N[C@@H](CCC(N)=O)C(=O)N[C@@H](CC(C)C)C(=O)N[C@@H](CCSC)C(=O)N[C@@H](Cc1c[nH]cn1)C(=O)N[C@@H](CC(N)=O)C(=O)N[C@@H](CC(C)C)C(=O)NCC(=O)N[C@@H](CCCCN)C(=O)N[C@@H](Cc1c[nH]cn1)C(=O)N[C@@H](CC(C)C)C(=O)N[C@@H](CC(N)=O)C(=O)N[C@@H](CO)C(=O)N[C@@H](CCSC)C(=O)N[C@@H](CCCNC(=N)N)C(=O)N[C@@H](CCCNC(=N)N)C(=O)N[C@H](C(=O)N[C@@H](CCC(=O)O)C(=O)N[C@@H](Cc1c[nH]c2ccccc12)C(=O)N[C@@H](CC(C)C)C(=O)N[C@@H](CCCNC(=N)N)C(=O)N[C@@H](CCCCN)C(=O)N[C@@H](CC1CCCCC1)C(=O)N[C@@H](CC(C)C)C(=O)N[C@@H](CCC(N)=O)C(=O)N[C@@H](CC(=O)O)C(=O)N[C@H](C(N)=O)C(C)C)C(C)C, also called Cha^27 analog) [[Ala^1,Arg^19]hPTH(1-31)NH2 Lys^27→Cha] | 91 nM | 629 nM | < 3 fold | ≤ 6 fold |
